Bridges are numbered along the chain shown (N, C = ends). Where no end group is shown, it is not given here. [ ]: non-standard residue; d: D form. triazolo‑proline = not defined here
Target: HIV-1 BaL.01 Env gp160 on pseudovirus (HIV-1 BaL.01)
Assay: cell-based or functional assay

B1: cPT 38 (peptide)
peptide: NIPWK
modifications: N-terminus of Asn 1 acylated by succinic acid whose other carboxyl is amide-bonded to Lys 5 side-chain amine (macrocycle; replaces Asp, no primary NH2); Pro 3 is 4-(4-(4-(thiophen-2-yl)phenyl)-1H-1,2,3-triazol-1-yl)proline; C-terminal amide
With B1 the HIV-1Bal.01 cell infection inhibition IC50 was 0.882 µM and the HIV-1 infection inhibition, fold decrease in potency against cPT 36 was 8 fold.

B2: cPT 30 (peptide)
peptide: DNIPWK-NH2
modifications: lactam 1-6; not fully specified (residue 4); also: Pro4 triazole substituent: isoquinoline moiety
Binder B2 has an HIV-1Bal.01 infection inhibition IC50 of 5 µM.

[dD]NI[triazolo‑proline]WK-NH2 (lactam 1-6; not fully specified; reading uncertain) [cPT 5] showed an HIV-1 infection inhibition, fold decrease in activity against cPT 3 of 7 fold.

In the case of DNI[4‑(4-((2,2'-bithiophen)-5-yl)-1H-1,2,3-triazol-1-yl)proline]WK-NH2 (lactam 1-6) [cPT 37], the HIV-1Bal.01 infection inhibition IC50 is reported as 0.405 µM.

Binder DNIPWK-NH2 (lactam 1-6; not fully specified (residue 4)) [cPT 33] has an HIV-1Bal.01 infection inhibition IC50 of 6 µM.

DNIPWK-NH2 (lactam 1-6; not fully specified (residue 4)) [cPT 31] showed an HIV-1Bal.01 infection inhibition IC50 of 1.8 µM.

B3: cPT 16 (peptide)
peptide: DNIPWK-NH2
modifications: lactam 1-6; not fully specified (residue 4); also: Pro4 triazole substituent: phenyl joined through two spacer atoms
B3 was tested, and the HIV-1Bal.01 infection inhibition IC50 was 2.02 µM.

DNI[triazolo‑proline]W[dK]-NH2 (lactam 1-6; not fully specified; reading uncertain) [cPT 4] gave an HIV-1 infection inhibition, fold decrease in activity against cPT 3 of over 50 fold.

For DNIPWK-NH2 (lactam 1-6; not fully specified (residue 4)) [cPT 32], the HIV-1Bal.01 infection inhibition IC50 was 7.3 µM.

DNI[triazolo‑Pro][benzothienylalanine]K-NH2 (lactam 1-6; not fully specified) [cPT 14] gave an HIV-1Bal.01 infection inhibition IC50 of 0.17 µM.
